These results are taken from US20060204496A1 (published 2006).

B1: AR2-44 (anti-AR2 chain scFv clone) (scFv, V domains shown)
VH: QVQLQQSEAELVRPETSVKVSCKASGYSFRNYLIEWVKQRPGQGLEWIGVINPGSGNTKYNEKFKGKATLTADKSSSTAYMQLSSLTSDDSAVYFCARDGYYLGTMDYWGQGTSVTVSS
VL: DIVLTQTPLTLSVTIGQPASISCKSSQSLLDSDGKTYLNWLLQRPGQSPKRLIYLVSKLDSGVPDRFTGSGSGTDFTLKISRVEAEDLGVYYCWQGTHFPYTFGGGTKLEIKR
notes: scFv fused to f1 phage gene 3 product on phage in the ELISA
B2: AR2-33 (anti-AR2 chain scFv clone) (scFv, V domains shown)
VH: QVQLQQSGAELVRPGTSVKVSCKASGYAFINNLIEWVQQRPGQGLEWIGVINPGSGNVKYNEKFKGKATLTADKSSSTAYMQLSSLTSDDSAVYFCARDGYYLGTMDHWGQGTSVTVSS
VL: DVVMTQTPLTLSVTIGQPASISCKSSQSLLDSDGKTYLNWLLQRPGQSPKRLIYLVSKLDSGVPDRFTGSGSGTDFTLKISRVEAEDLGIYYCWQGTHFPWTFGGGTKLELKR
notes: as for B1
B3: AR2-22 (anti-AR2 chain scFv clone) (scFv, V domains shown)
VH: QVQLQQSGPELVRPGVSVKISCKGSGYRFTDYAIHWVKQSHAKSLEWIGVISTYYGNTRYNQKFKGKATMTVDKSSSTAYMELASLTSEDSVIYYCARSGGSLMDYWGQGTSVTVSS
VL: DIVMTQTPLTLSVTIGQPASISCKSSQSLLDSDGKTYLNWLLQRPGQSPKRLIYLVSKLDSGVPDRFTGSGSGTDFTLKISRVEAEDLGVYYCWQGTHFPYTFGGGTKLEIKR
notes: as for B1
B4: AR2-43 (anti-AR2 chain scFv clone) (scFv, V domains shown)
VH: QVQLQQSGPELVRPGVSVKISCKGSGYTFTDYAMHWVKQSHAKSLEWIGVISTYYSNTRYNQKFKGKATMTVDKSSSTAYMELARLTSEDSAIYYCVRSGGSNMDYWGQGTSVTVSS
VL: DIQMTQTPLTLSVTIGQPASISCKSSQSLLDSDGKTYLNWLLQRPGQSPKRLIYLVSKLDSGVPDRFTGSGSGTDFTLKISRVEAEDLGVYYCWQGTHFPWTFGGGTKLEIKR
notes: as for B1
B5: AR2-40 (anti-AR2 chain scFv clone) (scFv, V domains shown)
VH: QVQLQQSGPELVRPGVSVKISCKGSSYKFTDYAMHWVKQSHAKSLEWIGVISTYYGNVKYNQKFKGKATMTVDKSSSTAYMELARLTSEDSAVYYCARSSGSYLDYWGQGTSVTVSS
VL: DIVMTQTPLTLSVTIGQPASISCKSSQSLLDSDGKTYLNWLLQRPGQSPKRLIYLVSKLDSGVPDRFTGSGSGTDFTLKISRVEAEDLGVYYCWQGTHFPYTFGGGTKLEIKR
notes: as for B1
B6: AR2-37 (anti-AR2 chain scFv clone) (scFv, V domains shown)
VH: QVQLQQSGPELVRPGVSVKISCKGSGYTFTDYAIHWVRQSHAQSLEWIGVIGTYSGNRNYNQKFKGKATMTVDKSSSTAYMELARLTSEDSAIYYCARSAGYSLDFWGQGTSVTVSS
VL: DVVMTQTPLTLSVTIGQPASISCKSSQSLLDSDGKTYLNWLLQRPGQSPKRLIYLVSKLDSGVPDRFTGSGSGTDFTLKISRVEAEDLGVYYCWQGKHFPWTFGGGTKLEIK
notes: as for B1
B7: AR2-14 (anti-AR2 chain scFv clone) (scFv, V domains shown)
VH: QVQLQQSGAELVRPGTSVKVSCKASGYAFTNYLIEWVKQRPGQGPEWIGVINPGSGNIRYNGKFKGKATLTADKSSSTAYMQLSSLTSDDSAVYFCARDAYYVGAMDYWGQGTSVTVSS
VL: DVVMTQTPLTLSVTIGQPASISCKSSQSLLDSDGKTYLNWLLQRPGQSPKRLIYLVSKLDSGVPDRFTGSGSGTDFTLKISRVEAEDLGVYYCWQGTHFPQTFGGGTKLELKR
notes: as for B1
B8: AR2-31 (anti-AR2 chain scFv clone) (scFv, V domains shown)
VH: EVQLQQSGPELVRPGVSVKISCKGSSYKFTDYAMHWVKQSHAKSLEWIGVISTYYGNVKYNQKFKGKATMTVDKSSSTAYMELARLTSEDSAVYYCARSYGSYLDYWGQGTSVTVSS
VL: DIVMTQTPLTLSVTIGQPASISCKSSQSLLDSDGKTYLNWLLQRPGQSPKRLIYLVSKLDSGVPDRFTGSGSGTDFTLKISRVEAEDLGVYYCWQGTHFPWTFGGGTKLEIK
notes: as for B1
B9: AR2-13 (anti-AR2 chain scFv clone) (scFv, V domains shown)
VH: QVQLQQSGGELVRPGTSVKVSCKASGYAFTNYLIEWVKQRPGQGLDWIGMINPGSGGTKCNKKFKGKVTLTADKSSSTAYMHLSSLTSDDSAVYFCARSGWVSAMDYWGQGTSVTVSS
VL: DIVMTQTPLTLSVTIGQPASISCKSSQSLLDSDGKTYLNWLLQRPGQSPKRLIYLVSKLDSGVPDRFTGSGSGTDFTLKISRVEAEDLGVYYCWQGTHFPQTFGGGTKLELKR
notes: as for B1
B10: AR2-45 (anti-AR2 chain scFv clone) (scFv, V domains shown)
VH: QVQLQQSGVELVRPGTSVKVSCKASGYAFTNYLIEWVKQRPGQGLDWIGMINPGSGGTKCNKKFKGKVTLTADKSSSTAYMHLSSLTSDDSAVYFCARSGWVYAMDYWGQGTSVTVSS
VL: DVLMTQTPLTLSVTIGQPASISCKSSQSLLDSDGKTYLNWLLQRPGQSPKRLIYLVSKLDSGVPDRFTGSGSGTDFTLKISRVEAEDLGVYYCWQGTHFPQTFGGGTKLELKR
notes: as for B1
B11: AR1-41 (anti-AR1 chain scFv clone) (scFv, V domains shown)
VH: QVQLKQSGAELVRPGASVRLSCKASGYTFTFYWINWIKQRPEQGLEWIGRIDPYDSETRYNQKFKDKAILTVDKYSSTAYMQLSSLTSEDSAVYYCAKGVYDGHWFFDVWGAGTSVTVSS
VL: DIVMTQSHKFMSTSVGDRVSITCKASQDVSTAVAWYQQKPGQSPKLLIYSASYRYTGVPARFSGSGSGTDFTFTISSVQTEDLAVYYCQQHYRTPPTFGGGTKLELKR
notes: In the phage ELISA it stood as a mouse scFv fused to the f1 phage gene 3 product on phage
B12: AR1-24 (anti-AR1 chain scFv clone) (scFv, V domains shown)
VH: QVQLQQSGPELEKPGASVKISCKASGYSFSDYNMNWVKQSNGKSLEWIGNIDPYNGDTNYNQKFKGKATLTLDKSSSTAYMQLKSLTSEDSAVYFCARSRGWLLPFAYWGQGTLVTVSA
VL: DILMTQSQKFMSTSVGDRVSVTCKASQNVGINVAWYQQKPGQSPKALIYSASYRYSGVPDRFTGSGSGTDFTLTISNVQSEDLAEYFCQQYNSYPLTFGGGTKLEIKR
notes: as for B1

One test deals with T1, AR2FLAG (solubilized receptor: extracellular domain of human AR2 with FLAG tag at the C terminus), … (human, UniProt P48551 27-243, biotin-labeled (NHS-PEO4-Biotin)).
T1 construct: extracellular domain; captured on streptavidin plates for the phage ELISA; also called biotin-labeled AR2FLAG; AR2 chain of type-I interferon receptor; not shown: FLAG tag at the C terminus
T1 sequence (looked up): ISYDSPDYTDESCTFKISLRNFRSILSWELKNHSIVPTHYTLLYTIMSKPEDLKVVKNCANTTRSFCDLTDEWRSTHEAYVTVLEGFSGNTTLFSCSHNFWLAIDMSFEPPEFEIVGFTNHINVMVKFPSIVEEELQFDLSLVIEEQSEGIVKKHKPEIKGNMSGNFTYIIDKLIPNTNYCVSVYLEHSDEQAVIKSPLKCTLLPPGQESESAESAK
As to the kind of experiment: phage ELISA, biotin-labeled AR2FLAG on streptavidin plates, anti-M13-HRP detection. Here is the method:
(§1) The single colonies described above were inoculated to 150 μl of 2×YTAG and cultured at 30° C. overnight. 51 μl of the cultures was inoculated to 500 μl of 2×YTAG, and incubated at 37° C. for two hours. Then 100 μl of 2×YTAG containing 2.5×10⁹ pfu of helper phage and 0.3 μl of 1 mol/l IPTG was added to the cultures, and allowed to stand at 37° C. for 30 minutes. The cultures were then incubated at 30° C. overnight, and their culture supernatant was subjected to ELISA. StreptaWell 96-well microtiter plates (Roche) were coated overnight with 100 μl of PBS containing 1.0 μg/ml biotin-labeled AR1FLAG or AR2FLAG The plates were washed with PBST to remove free antigens, and then blocked overnight with 200 μl of 2% M-PBS. 2% M-PBS was removed and the culture supernatant was added to the plates. The plates were allowed to stand for 40 minutes to bind with the antibodies. After the plates were washed, bound phages were detected using HRP-conjugated anti-M13 antibody (Amersham Pharmacia Biotech) diluted with 2% M-PBS and BM blue POD substrate (Roche). The reaction was stopped by adding sulfuric acid, and absorbance was determined at 450 nm.
For the molecule B1, the binding result is “binds”.
The same measure, in the same setting: the entry for B2 is “binds”; for B3 it is “binds”.
For the molecule B4, the binding result is “binds”.
On to B5, for which the binding result was “binds”.
The same measure, in the same setting: the entry for B6 is “binds”.
The same measure, in the same setting: the value for B7 was “binds”.
B8: the binding result is “binds”.
Same read-out and setting: the entry for B9 is “binds”; for B10 it is “binds”.

Another test addresses T2, AR1FLAG (solubilized receptor: extracellular domain of human AR1 with FLAG tag at the C terminus), … (human, UniProt P17181 28-436, biotin-labeled (NHS-PEO4-Biotin)).
T2 construct: extracellular domain; captured on streptavidin plates for the phage ELISA; also called biotin-labeled AR1FLAG; AR1 chain of type-I interferon receptor; not shown: FLAG tag at the C terminus
T2 sequence (looked up): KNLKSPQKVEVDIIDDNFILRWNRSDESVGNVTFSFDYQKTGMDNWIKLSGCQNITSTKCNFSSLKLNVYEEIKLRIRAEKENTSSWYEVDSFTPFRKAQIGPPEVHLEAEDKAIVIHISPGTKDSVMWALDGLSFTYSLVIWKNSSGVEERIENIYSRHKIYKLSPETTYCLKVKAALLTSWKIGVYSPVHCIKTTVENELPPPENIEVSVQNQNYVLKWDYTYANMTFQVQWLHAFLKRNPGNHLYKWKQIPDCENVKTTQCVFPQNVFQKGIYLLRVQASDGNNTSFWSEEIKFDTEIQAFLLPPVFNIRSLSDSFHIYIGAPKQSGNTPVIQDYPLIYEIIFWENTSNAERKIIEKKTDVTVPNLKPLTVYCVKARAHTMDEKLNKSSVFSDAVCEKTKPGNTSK
As to the kind of experiment: phage ELISA, biotin-labeled AR1FLAG on streptavidin plates, anti-M13-HRP detection. The procedure: as §1
In general terms: An ELISA detects its analyte on a solid surface through an enzyme-linked reagent.
For the molecule B11, the binding result is recorded as “binds”.
Turning to B12, the binding result was “binds”.
